Values of other authors, collected in paper PMC9206673.

Assays:
[1] = target: neurotransmitter receptor peptide

Chain of Gephyrin (Q8BUV3 whole entry): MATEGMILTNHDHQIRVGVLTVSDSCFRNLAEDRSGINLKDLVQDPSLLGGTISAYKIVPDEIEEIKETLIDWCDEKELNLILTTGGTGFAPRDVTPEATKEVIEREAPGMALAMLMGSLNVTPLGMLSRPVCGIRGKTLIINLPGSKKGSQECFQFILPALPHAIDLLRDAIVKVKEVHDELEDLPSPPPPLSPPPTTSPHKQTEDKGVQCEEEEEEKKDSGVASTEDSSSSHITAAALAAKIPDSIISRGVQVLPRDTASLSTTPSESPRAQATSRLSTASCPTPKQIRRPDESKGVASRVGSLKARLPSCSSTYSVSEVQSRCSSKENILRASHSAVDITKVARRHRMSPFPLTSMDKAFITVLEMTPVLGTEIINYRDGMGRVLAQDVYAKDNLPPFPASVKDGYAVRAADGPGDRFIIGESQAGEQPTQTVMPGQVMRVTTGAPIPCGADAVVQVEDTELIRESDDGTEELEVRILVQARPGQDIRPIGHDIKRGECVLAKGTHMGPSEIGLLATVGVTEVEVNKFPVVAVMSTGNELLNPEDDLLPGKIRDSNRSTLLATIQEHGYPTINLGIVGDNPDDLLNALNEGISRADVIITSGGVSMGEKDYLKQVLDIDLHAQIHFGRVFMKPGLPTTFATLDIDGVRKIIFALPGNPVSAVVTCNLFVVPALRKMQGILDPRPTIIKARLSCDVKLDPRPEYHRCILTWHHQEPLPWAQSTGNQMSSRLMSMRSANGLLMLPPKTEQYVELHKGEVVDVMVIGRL

**Q.** With Gephyrin (from UniProt Q8BUV3) as the substance, how does the Kd [1] read?
**A.** The Kd was 140 nM.

**Q.** What about the Kd (gephyrin-binding peptide) of the same substance?
**A.** The Kd was 0.14 nM.
